Experimental data: article PMC4643876, “Picomolar Inhibition of Plasmepsin V, an Essential Malaria Protease, Achieved Exploiting the Prime Region” (PLoS ONE, 2015)
Where two headings read alike, the source gives them in different places. Ends that are not written are not given here. * marks the point of attachment. Biotin = O=C1N[C@H]2[C@H](CS[C@H]2CCCCC(=O)*)N1; Octanoyl = CCCCCCCC(=O)*; GABA = NCCCC(=O)O

Key:
[1] = biological target: GFP-tagged Plasmepsin V (PmV-GFP), P. falciparum clone DC6 (Plasmodium falciparum)
[2] = biological target: GFP-tagged Plasmepsin V (PmV-GFP), P. falciparum clone DC6 (Plasmodium falciparum); remark: listed apart in the source
[3] = biological target: GFP-tagged Plasmepsin V (PmV-GFP), P. falciparum clone DC6 (Plasmodium falciparum); remark: listed apart in the source

GFP-tagged Plasmepsin V (PmV-GFP), P. falciparum clone DC6 (Plasmodium falciparum), sequence (Q8I6Z5 whole entry): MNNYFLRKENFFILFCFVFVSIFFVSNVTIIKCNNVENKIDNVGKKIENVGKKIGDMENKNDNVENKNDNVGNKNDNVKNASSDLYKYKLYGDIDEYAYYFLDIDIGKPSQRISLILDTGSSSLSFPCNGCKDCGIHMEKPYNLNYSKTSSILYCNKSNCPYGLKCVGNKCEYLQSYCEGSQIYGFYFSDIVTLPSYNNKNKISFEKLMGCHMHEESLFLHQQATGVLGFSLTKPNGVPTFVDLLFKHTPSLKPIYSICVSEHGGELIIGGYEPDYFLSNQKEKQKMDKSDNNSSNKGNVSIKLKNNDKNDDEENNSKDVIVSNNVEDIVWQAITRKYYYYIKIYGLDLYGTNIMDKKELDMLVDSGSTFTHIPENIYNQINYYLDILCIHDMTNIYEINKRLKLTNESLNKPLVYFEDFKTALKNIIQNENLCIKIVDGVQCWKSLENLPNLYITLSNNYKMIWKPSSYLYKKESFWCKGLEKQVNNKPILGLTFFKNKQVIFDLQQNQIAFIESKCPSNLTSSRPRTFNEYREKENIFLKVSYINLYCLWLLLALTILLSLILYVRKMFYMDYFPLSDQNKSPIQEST

Binder | IC50 of inhibition of PmV cleavage of the fluorogenic HRPII-PExEl substrate [1] | further results
RLLYEA [Compound 37b (R epimer of Compound 37)] | 1.57 nM | 
RLLAQA [Compound 8b (R epimer of Compound 8, glutamine in P2')] | 188 nM | 
Octanoyl-RLLYEA (not fully specified) [Compound 37a (octanoyl group at the N-terminus of Compound 7a)] |  | IC50 of inhibition of PmV cleavage of the fluorogenic HRPII-PExEl substrate [2]: 0.023 nM
{Biotin-GABA-GABA}-RLLAEA (also: hydroxyethylamino (HEA) isostere replaces P1 Leu-P1' Ala peptide bond) [Compound 36, a biotinylated version of Compound 1] |  | in vitro inhibitory activity (IC50) against PmV cleavage of the fluorogenic HRPII-PExEl substrate [3]: 42 nM
